# Data published in PMC9763339.
# Target: RBM5-Myc (UniProt P52756)
# UniProt P52756, sequence (P52756 whole entry): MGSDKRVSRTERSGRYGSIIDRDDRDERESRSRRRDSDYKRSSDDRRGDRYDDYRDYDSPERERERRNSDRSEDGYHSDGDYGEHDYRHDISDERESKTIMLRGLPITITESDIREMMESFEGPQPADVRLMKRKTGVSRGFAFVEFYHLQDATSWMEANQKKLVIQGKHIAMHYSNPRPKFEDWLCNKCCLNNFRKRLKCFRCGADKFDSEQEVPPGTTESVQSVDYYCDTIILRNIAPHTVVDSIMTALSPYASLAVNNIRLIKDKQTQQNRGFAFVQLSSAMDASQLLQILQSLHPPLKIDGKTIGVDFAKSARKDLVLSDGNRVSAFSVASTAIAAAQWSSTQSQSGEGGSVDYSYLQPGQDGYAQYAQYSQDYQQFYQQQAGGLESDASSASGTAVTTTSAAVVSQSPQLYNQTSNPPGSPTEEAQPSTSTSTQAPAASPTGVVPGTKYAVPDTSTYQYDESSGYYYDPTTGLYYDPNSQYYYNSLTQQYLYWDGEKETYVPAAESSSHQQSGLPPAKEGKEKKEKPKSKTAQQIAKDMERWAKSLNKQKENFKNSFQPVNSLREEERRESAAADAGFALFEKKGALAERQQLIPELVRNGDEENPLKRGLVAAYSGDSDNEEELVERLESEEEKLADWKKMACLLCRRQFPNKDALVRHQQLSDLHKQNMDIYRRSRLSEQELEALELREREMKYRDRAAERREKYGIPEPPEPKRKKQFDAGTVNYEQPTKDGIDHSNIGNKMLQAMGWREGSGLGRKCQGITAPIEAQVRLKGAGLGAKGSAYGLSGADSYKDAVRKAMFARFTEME
substance,measurement,value
InlP-HA (in HeLa cells) (natural protein),percentage of HeLa cells with aberrantly shaped nuclei (RBM5-induced cell death) when InlP is co-expressed with RBM5,13%
